This is an account of results in patent US20190153097A1.

This assay addresses Cynomolgus/Rhesus CTLA-4 (cynomolgus/rhesus). The assay can be described thus: ELISA with Cynomolgus/Rhesus CTLA-4 titrated (said to be similar to the mouse CTLA-4 ELISA with coated antibodies).

With “ipilimumab (human anti-huCTLA-4 marketed as Yervoy) (antibody)”, the EC50 (read off the curve) stood at 200 pM.
